Data set [1] can be described thus: Measurement of BTGase activity (hydroxamate method). The data set is classed as biochemical. Conditions: freeze dried product prepared in Example 1. The protocol:
Measurement of the activity of BTGase is carried out by performing a reaction using benzyloxycarbonyl-L-glutaminyl glycine and hydroxylamine as substrates in the absence of Ca^2+, forming an iron complex with the resulting hydroxamic acid in the presence of trichloroacetic acid, measuring absorption at 525 nm and determining the amount of hydroxamic acid by a calibration curve to calculate the activity. The BTGase activity is measured by the method described below, unless otherwise indicated.
To 0.05 ml of an enzyme solution is added 0.5 ml of Reagent A and they are mixed with each other. After reacting at 37° C. for 30 minutes, Reagent B is added thereto to discontinue the reaction and form an Fe complex. Thereafter, absorbance is measured at 525 nm. As a control, absorbance is measured after reacting a previously thermally inactivated enzyme solution in a similar manner and a difference in absorbance between the control and the enzyme solution is measured. Separately, a calibration curve is prepared using L-glutamic acid γ-monohydroxamio acid instead of the enzyme solution, and the amount of hydroxamic acid produced is determined by the difference in absorbance described above. An enzyme activity which produces 1 μmol of hydroxamic acid per 1 minute is defined as 1 unit.

Data set [2] can be described thus: Sausage: rheometer and organoleptic evaluation. Conditions: 1 unit per 1 g of dry pork, 55° C. 2 h, then 80° C. 30 min. The procedure: Physical properties were measured with a rheometer (manufactured by Yamaden Co., Ltd.) and organoleptic evaluation (n=10) was performed. The amount of BTGase added was 1 unit per 1 g of dry pork. The enzyme reaction was carried out at 55° C. for 2 hours. After completion of the reaction, heating was performed at 80° C. for 30 minutes to make a product. As a control, BTGase-free product was used.

B1: BTGase: microorganism-derived transglutaminase; in Examples 4-11 the freeze dried product prepared in Example 1 (S. mobaraense, i.e. BTG-1) (protein, UniProt P81453 77-407, looked up)
Protein-glutamine …: DSDDRVTPPAEPLDRMPDPYRPSYGRAETVVNNYIRKWQQVYSHRDGRKQQMTEEQREWLSYGCVGVTWVNSGQYPTNRLAFASFDEDRFKNELKNGRPRSGETRAEFEGRVAKESFDEEKGFQRAREVASVMNRALENAHDESAYLDNLKKELANGNDALRNEDARSPFYSALRNTPSFKERNGGNHDPSRMKAVIYSKHFWSGQDRSSSADKRKYGDPDAFRPAPGTGLVDMSRDRNIPRSPTSPGEGFVNFDYGWFGAQTEADADKTVWTHGNHYHAPNGSLGAMHVYESKFRNWSEGYSDFDRGAYVITFIPKSWNTAPDKVKQGWP
B1 gave a specific activity in data set [1] of 2.50 Units/mg protein. Further, the “Viscosity Coefficient” value in data set [2] was 1.92 × 10^9 dyn.sec.cm^-2.
